To fix the notation:
T1: Fas receptor on Jurkat cells (UniProt P25445 26-335, limits assumed)
T1 sequence (looked up): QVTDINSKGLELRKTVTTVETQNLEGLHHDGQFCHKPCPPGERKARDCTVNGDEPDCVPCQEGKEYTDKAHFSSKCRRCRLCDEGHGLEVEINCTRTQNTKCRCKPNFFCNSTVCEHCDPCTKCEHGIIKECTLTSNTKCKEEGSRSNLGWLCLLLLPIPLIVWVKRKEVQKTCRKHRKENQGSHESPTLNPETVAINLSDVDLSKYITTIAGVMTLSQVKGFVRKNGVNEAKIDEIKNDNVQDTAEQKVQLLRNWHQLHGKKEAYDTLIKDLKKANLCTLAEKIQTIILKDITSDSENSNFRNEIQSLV

T2: Recombinant Human Fas/TNFRSF6/Fc Chimera (human, UniProt P25445 26-173)
T2 construct: also called FasR; Fas receptor; Fc part of the bought chimera not given
T2 sequence (looked up): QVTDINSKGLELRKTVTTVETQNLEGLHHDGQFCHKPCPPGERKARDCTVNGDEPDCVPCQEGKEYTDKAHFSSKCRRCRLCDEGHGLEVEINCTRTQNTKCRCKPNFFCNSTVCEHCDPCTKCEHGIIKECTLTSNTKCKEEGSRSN

B1: YLGA (peptide)
peptide: YLGA
modifications: not fully specified
notes: Synthetic peptide; also called original tyrosine peptide

No end group written: not given here.

The target of the first assay is T1, Fas receptor on Jurkat cells. The assay can be described thus: cell-based or functional assay.
Consider B1, for which the “EC50 (nM), cell viability of Jurkat cells exposed to recombinant FasL” value came to 6 nM.
Still for that read-out and setting: the same measure for LLGA: 93 nM; for SLGA: 6 nM; for YAGA: 6 nM.
In the case of YLGG, the “EC50 (nM), cell viability of Jurkat cells exposed to recombinant FasL” value stood at 52 nM.

The next assay shares this target. Description: cell-based or functional assay. The source holds these as a separate data set.
Take B1: the “EC50 (FasR)” value is 6 nM.
Still for that read-out and setting: the same measure for YLGG: 52 nM.

For a further assay, the target named is TNFR1. The assay can be described thus: cell-based or functional assay.
B1: the “EC50 (TNFR)” value worked out at 11 nM.
Still for that read-out and setting: the result for YLGG reads 8 nM.

For the next assay, the target named is T3, TNFR1.
T3 construct: The same entry is used for the Kd and for the EC50 rows
T3 sequence (P19438 whole entry): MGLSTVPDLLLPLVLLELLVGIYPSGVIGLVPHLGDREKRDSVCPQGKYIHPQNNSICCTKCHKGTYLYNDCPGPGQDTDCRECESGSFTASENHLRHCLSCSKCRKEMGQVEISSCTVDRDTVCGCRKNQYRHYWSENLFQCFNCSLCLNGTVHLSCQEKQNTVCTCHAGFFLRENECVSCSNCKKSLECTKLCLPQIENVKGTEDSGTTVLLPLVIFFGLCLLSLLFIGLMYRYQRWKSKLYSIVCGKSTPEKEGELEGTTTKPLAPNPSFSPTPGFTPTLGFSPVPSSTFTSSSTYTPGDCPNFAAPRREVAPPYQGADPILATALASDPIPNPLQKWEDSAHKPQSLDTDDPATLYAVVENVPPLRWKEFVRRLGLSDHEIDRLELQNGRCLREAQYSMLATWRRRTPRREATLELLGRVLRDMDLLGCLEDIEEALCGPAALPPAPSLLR
Description: method for TNFR not described.
Usually Kd stands for the concentration at which binding is half-saturated. The molecule B1 had a Kd of 6 nM.
On the same count and under the same terms, the result for YLGG reads 4 nM.

In a further assay the target is T2, Recombinant Human Fas/TNFRSF6/Fc Chimera. Description: ELISA, peptide coated, Fas/Fc added. The method, then:
(§1) ELISA. Peptides were dissolved in a coating buffer solution (0.05M Sodium Carbonate, 0.02% Sodium Azide, pH=9.6) at the appropriate concentrations to a final concentration of 10 μM. Dilutions were made accordingly to reach desired experimental concentrations. 100 μl aliquots of the peptide solution was added to each well and incubated for 2 hours. All incubations were carried out with shaking at T=37° C. Wells were washed by pipetting solution out of each well, adding 200 μL of washing solution (PBS-Tween; 0.5%), shaking for 15 minutes and emptying each well. Three wash cycles were carried out prior to addition of 200 μL of blocking solution (1% BSA in PBS buffer) to each well followed by incubation for 2 hours. Wells were then washed (as per above procedure) three times. Protein solutions of the appropriate concentrations (Vₛₒₗᵤₜᵢₒₙ 50 μL) were then added and incubated for 2 hours. After washing three times (as per above protocol) Fas specific antibody solution (˜1:20,000) was added to each well in 100 μL aliquots and incubated for 1 hour. After washing three times (as per above protocol) IgM-HRP solution (˜1:20,000) was added to each well in 100 μL aliquots and incubated (with shaking) for 1 hour at T=37° C. Wells were washed three times prior to the addition of ready-to-use TMD, followed by incubation for 30 minutes. 2M H₂SO₄ (3 drops) was added to stop colorimetric reaction and the absorption was taken at 450 nm on a Perkin-Elmer, Victor3 Model automated plate reader. Data was analyzed using standard regression fits in Excel.
(§2) Effect of Amino Acid Substitution on Binding Affinities. […] In the first series of peptides, alterations were made only to the tyrosine residue while retaining the final three amino acids homologous in the parent sequence (LGA).
Turning to B1, the Ka came to 2e+08 M⁻¹.
For the molecule YLAA, the “fold decrease in Ka” value was determined as 20 fold.
On to GLGA, for which the binding result is recorded as “no binding (tested: concentration range of 1 nM to 1 µM)”.
Same read-out and setting: the result for ALGA reads “no binding (tested: concentration range of 1 nM to 1 µM)”.
Take LLGA: the Ka was found to be 1e+07 M⁻¹.
Turning to YLGI, the “times less affinity than YLGA” value was approximately 10 times.
Turning to SLGA, the Ka stood at 2e+08 M⁻¹.
As to YLGG, the “times less affinity than YLGA” value is approximately 10 times.
In the case of TLGA, the Ka was determined as 2e+08 M⁻¹.
On to YGGA, for which the “fold decrease in Ka” value worked out at 20 fold.
Take KLGA: the Ka was 8e+06 M⁻¹.
In the case of YLGL, the “times less affinity than YLGA” value is approximately 10 times.
As for DLGA, the Ka came to 5e+07 M⁻¹ and the “fold drop off against YLGA” value is 4 fold.
Regarding YLLA, the “fold decrease in Ka” value stood at 20 fold.
Turning to ILGA, the Ka came out at 9e+06 M⁻¹.
ELGA: the Ka was 5e+07 M⁻¹ and the “fold drop off against YLGA” value was 4 fold.
With FLGA, the Ka amounted to 1e+08 M⁻¹.
For WLGA, the Ka was found to be 8e+07 M⁻¹.

The target is the same in a further assay. Description: ELISA, peptide coated, Fas/Fc added. The source holds these as a separate data set. The method, then:
as §1, §2
On the technique in general: An ELISA detects its analyte on a solid surface through an enzyme-linked reagent.
For the molecule B1, the Ka amounted to 2e+08 M⁻¹.
YFGA: the binding result is “no binding (tested: concentration range of 1 nM to 1 µM)”.
For the molecule YIGA, the Ka was found to be 2e+08 M⁻¹.
On to YAGA, for which the Ka is 3e+08 M⁻¹.
For YVGA, the Ka turned out to be 2e+08 M⁻¹.
The same measure, in the same setting: the same measure for YGGA: 1e+07 M⁻¹.
Turning to YTGA, the binding result is “no binding (tested: concentration range of 1 nM to 1 µM)”.

The next assay has the same target. Description: ELISA, peptide coated, Fas/Fc added. This is another data set of the same source. The method, then: as §1, §2
With B1, the Ka stood at 2e+08 M⁻¹.
Take YLAA: the Ka was found to be 1e+06 M⁻¹.
YLLA: the Ka turned out to be 1e+06 M⁻¹.
Regarding YLIA, the binding result is given as “no binding (tested: concentration range of 1 nM to 1 µM)”.

A further assay has the same target. Description: ELISA, peptide coated, Fas/Fc added. This is another data set of the same source. The protocol: as §1, §2
Regarding B1, the Ka turned out to be 2e+08 M⁻¹.
Same read-out and setting: the result for YLGI reads 3e+07 M⁻¹.
Turning to YLGT, the binding result is “no binding (tested: concentration range of 1 nM to 1 µM)”.
Take YLGG: the Ka was 4e+07 M⁻¹.
The same measure, in the same setting: the result for YLGL reads 3e+07 M⁻¹.

Another assay shares this target. The assay can be described thus: ELISA, peptide coated, Fas/Fc added. This is another data set of the same source. The protocol: as §1, §2
Turning to B1, the Ka amounted to 2e+08 M⁻¹ and the equilibrium dissociation constant (Kd) amounted to 5 nM.
Take LLGA: the Ka amounted to 1e+07 M⁻¹ and the Kd is 88 nM.
Regarding SLGA, the Ka came out at 2e+08 M⁻¹ and the Kd worked out at 5 nM.
Take YAGA: the Ka was determined as 3e+08 M⁻¹ and the Kd stood at 4 nM.
Take YLGG: the Ka was determined as 4e+07 M⁻¹ and the dissociation constant (Kd) amounted to 28 nM.
Taken in the same sequence, the figures for FLGA were 1e+08 M⁻¹ and 10 nM.
With WLGA, the Ka worked out at 8e+07 M⁻¹ and the equilibrium dissociation constant (Kd) came out at 13 nM.

For the next assay the target is unchanged. The assay can be described thus: ELISA, peptide coated, Fas/Fc added. This is another data set of the same source. The method, then:
as §1, with “After washing three times (as per above protocol) IgM-HRP solution (˜1:20,000) was added to each well in 100 μL aliquots and incubated (with shaking) for 1 hour at T=37° C.” left out
For the molecule B1, the Kd was 5 nM.
Take YLGG: the Kd stood at 28 nM.

For another assay the target is unchanged. The assay can be described thus: ELISA, peptide coated, Fas/Fc added. The source holds these as a separate data set. The method, then:
as §1
Effect of Flanking Residues on Binding Affinities. […] While this work has shown that tetrapeptides based from the original protein sequence can inhibit the FasL/FasR cell death pathway at low nM concentrations, the ability to improve upon this was examined by looking at the extended sequence on both the N-terminal and C-terminal side of the YLGA (SEQ ID NO:1) motif. Peptides up to 12 amino acids in length were synthesized based on the α-Met sequence and their Kₐ values measured for the Fas receptor, Table 7.
On to HHIYLGATNYI [HHI YLG ATN YI], for which the Ka is 3e+08 M⁻¹.
As to IYLGATNYIY [I YLG ATN YIY], the Ka turned out to be 3e+08 M⁻¹.
The same measure, in the same setting: the result for YLGATNYIY [YLG ATN YIY] reads 3e+08 M⁻¹; that for HHIYLGATN [HHI YLG ATN], 3e+08 M⁻¹.
As to HHIYLGA [HHI YLG A], the Ka came out at 3e+08 M⁻¹.
Regarding HIYLGATNYIY [HI YLG ATN YIY], the Ka was found to be 3e+08 M⁻¹.
Still for that read-out and setting: the result for HHIYLGATNYIY [HHI YLG ATN YIY] reads 3e+08 M⁻¹; that for HHIYLGAT [HHI YLG AT], 3e+08 M⁻¹; that for HHIYLGATNY [HHI YLG ATN Y], 3e+08 M⁻¹.

These data come from patent publication US20080280834A1 (UNIVERSITY OF PITTSBURGH OF THE COMMONWEALTH SYSTEM OF …, published 2008).
